Test [1] deals with T1, TNFR1 on the surface of cells (HT1080, HeLa, Kym-1) (human, UniProt P19438 30-455).
T1 sequence (looked up): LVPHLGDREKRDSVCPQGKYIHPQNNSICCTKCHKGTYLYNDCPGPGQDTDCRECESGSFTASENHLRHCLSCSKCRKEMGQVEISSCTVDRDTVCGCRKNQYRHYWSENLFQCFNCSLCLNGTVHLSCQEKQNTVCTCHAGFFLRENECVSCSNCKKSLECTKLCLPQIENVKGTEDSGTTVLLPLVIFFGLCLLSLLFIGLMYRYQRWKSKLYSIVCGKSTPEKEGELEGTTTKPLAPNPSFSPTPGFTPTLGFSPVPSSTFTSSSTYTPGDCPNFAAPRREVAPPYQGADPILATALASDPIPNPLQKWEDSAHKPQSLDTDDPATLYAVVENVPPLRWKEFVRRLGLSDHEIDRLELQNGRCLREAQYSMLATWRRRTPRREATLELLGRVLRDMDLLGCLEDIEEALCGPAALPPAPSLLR
In words: cell-based or functional assay.

Test [2] concerns the target T1, TNFR1 on the surface of cells (HT1080, …). In words: flow cytometry on TNFR1-expressing HT1080 cells. How it is done: (§1) Cells were detached and transferred to a 96 well microtiter plate at a concentration of 100.000-250.000 per well in 100 μl PBA (2% FCS, 0.2% NaN3 in sterile PBS).
Test [3] has as its target T2, CD3 on the surface of CD3-transfected Jurkat cells.
T2 construct: whole, on cells; also called CD3 expressing Jurkat cells
In words: flow cytometry on CD3-transfected Jurkat cells. The procedure: as §1
On the technique in general: In flow cytometry, cells or beads pass a laser one at a time.

Test [4] has as its target T3, human TNFR1-Fc fusion protein (human, UniProt P19438 30-211).
T3 construct: Provided by Baliopharm AG; Coated at 1 ug/ml in the ELISA; also called huTNFR1-Fc; immobilized human TNFR1; not shown: Fc part not described
T3 sequence (looked up): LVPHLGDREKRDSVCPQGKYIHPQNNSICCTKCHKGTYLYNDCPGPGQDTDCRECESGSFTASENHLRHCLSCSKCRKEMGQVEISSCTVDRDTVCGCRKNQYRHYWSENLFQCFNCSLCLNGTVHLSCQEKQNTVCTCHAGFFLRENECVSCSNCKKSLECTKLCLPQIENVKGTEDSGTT
In words: ELISA, human TNFR1-Fc fusion protein. How it is done: Microtiter plates were coated with 100 μl of TNFFR1-Fc fusion protein (1 μg/ml in PBS) and incubated at 4° C. overnight.
A general note: In an ELISA, binding on a coated surface is turned into a signal by an enzyme label.

In test [5] the target is T3, human TNFR1-Fc fusion protein. The experiment in a line: ELISA, immobilized human TNFR1-Fc.
The target is the same in test [6]. The experiment in a line: ELISA, human TNFR1-Fc (CHO-produced protein, Example 14). The procedure:
(§2) Microtiter plates were coated with 100 μl of TNFFR1-Fc fusion protein (1 μg/ml in PBS) and incubated at 4° C. overnight. The residual binding sites were blocked with 2% MPBS (skim milk in PBS, 200 μl per well) at room temperature for 2 hours and subsequently washed twice with PBS. 100 μl of the samples diluted in 2% MPBS were incubated at room temperature for 1 hour prior to the last incubation step with 100 μl of the HRP conjugated detection antibodies in 2% MPBS. Bound protein was detected with 100 μl TMB substrate solution, the HRP-reaction was stopped by the addition of 50 μl 1 M H2SO4 and the absorption at the wavelength of 450 nm was measured using the Infinite microtiter plate reader (TECAN, Maennedorf, Switzerland). Between each incubation step and in advance of the detection, the plates were washed three times with PBST and twice with PBS.

In test [7] the target is T1, TNFR1 on the surface of cells (HT1080, …). In words: cell-based or functional assay. The source holds these as a separate data set.
The target is the same in test [8]. In words: cell-based or functional assay. The source holds these as a separate data set.
Test [9] addresses T3, human TNFR1-Fc fusion protein. The experiment in a line: QCM (Attana), real-time binding, 128 nM to 4 nM, one-to-one fit. How it is done: (§3) FIG. 36. […] Five concentrations between 128 nM and 4 nM were used to generate the kinetic data in b) and a one-to-one binding algorithm was employed for fitting.
Test [10] has the same target. The experiment in a line: QCM (Attana), real-time binding, one-to-one fit. The procedure:
as §3

Test [11] shares this target. In words: ELISA, immobilized human TNFR1-Fc. How it is done:
as §2
This is another data set of the same source.

Test [12] deals with T1, TNFR1 on the surface of cells (HT1080, …). In words: cell-based or functional assay. The source holds these as a separate data set.

T2 sequence (P07766 23-207): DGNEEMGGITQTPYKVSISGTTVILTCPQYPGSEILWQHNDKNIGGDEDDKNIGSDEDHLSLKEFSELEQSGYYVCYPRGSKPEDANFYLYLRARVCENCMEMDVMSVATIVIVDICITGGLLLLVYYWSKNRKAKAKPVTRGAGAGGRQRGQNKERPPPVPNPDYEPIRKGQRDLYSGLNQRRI

B1: 13.7N-CD3N-hFc1k (bispecific antibody)
chain 1: HVQLVQSGAEVKKPGSSVKVSCKASGYTFTDFYINWVRQAPGQGLEWIGEIVPSQGEAKYNDKFKARVTITADKSTSTAYMELSSLRSEDTAVYYCARWDFLDYWGQGTTVTVSSGGGGSGGGGSGGGGSDVQMTQSPSSLSASVGDRVTITCRSSQSLLHSNGNTYLHWYQQKPGKAPKLLIYTVSNRFSGVPSRFSGSGSGTDFTLTISSLQPEDFATYYCSQSTHVPYTFGGGTKVEIKAAADKTHTCPPCPAPPVAGPSVFLFPPKPKDTLMISRTPEVTCVVVDVSHEDPEVKFNWYVDGVEVHNAKTKPREEQYNSTYRVVSVLTVLHQDWLNGKEYKCKVSNKGLPSSIEKTISKAKGQPREPSVFPLAPSSKSTSGGTAALGCLVKDYFPSDIAVEWESGALTSGVHTFPAVLQSSGLYSLSSVVTVPSSSLGTQTYSCSVMHEALHNHYTQKSVEPKSC
chain 2: DIQMTQSPSSLSASVGDRVTITCRASQDIRNYLNWYQQKPGKAPKLLIYYTSRLHSGVPSRFSGSGSGTDFTFTISSLQPEDIATYYCQQGNTLPWTFGQGTKLEIKRGGGGSGGGGSGGGGSQVQLVQSGAEVKKPGSSVKVSCKASGGTFSGYTMNWVRQAPGQGLEWMGLINPYKGVSTYNGKFKDRVTITADKSTSTAYMELSSLRSEDTAVYYCARSGYYGDSDWYFDVWGQGTLVTVSSSGGGSGGGGSDKTHTCPPCPAPPVAGPSVFLFPPKPKDTLMISRTPEVTCVVVDVSHEDPEVKFNWYVDGVEVHNAKTKPREEQYNSTYRVVSVLTVLHQDWLNGKEYKCKVSNKGLPSSIEKTISKAKGQPREPSVFIFPPSDEQLKSGTASVVCLVNNFYPRDIAVEWEVDNALQSGNSQESVTEQDSKDSTYSLSSTLTLSKADYEKHKVYSCSVMHEALHNHYTQKSFNRGECGGGGSGGGGSGGGGSGTGGSGG
notes: also called scFv13.7-CD3-Hinge-Fc1k
The term EC50 denotes the concentration at which the effect is half-maximal. Read a low EC50 as higher potency in that assay. In the case of B1, the “Cytotxicity IC50” value in [1] was 0.8 nM. For the same molecule, the EC50 in [2] is 3.7 nM; in test [3], 1.6 nM; in [4], 3.5 nM.

B2: Fv13.7x-Fc1k (Fc fusion)
chain 1: HVQLVQSGAEVKKPGSSVKVSCKASGYTFTDFYINWVRQAPGQGLEWIGEIVPSQGEAKYNDKFKARVTITADKSTSTAYMELSSLRSEDTAVYYCARWDFLDYWGQGTTVTVSSGTGGGSGPSVFLFPPKPKDTLMISRTPEVTCVVVDVSHEDPEVKFNWYVDGVEVHNAKTKPREEQYNSTYRVVSVLTVLHQDWLNGKEYKCKVSNKGLPSSIEKTISKAKGQPREPSVFIFPPSDEQLKSGTASVVCLVNNFYPRDIAVEWEVDNALQSGNSQESVTEQDSKDSTYSLSSTLTLSKADYEKHKVYSCSVMHEALHNHYTQKSFNRGEC
chain 2: DVQMTQSPSSLSASVGDRVTITCRSSQSLLHSNGNTYLHWYQQKPGKAPKLLIYTVSNRFSGVPSRFSGSGSGTDFTLTISSLQPEDFATYYCSQSTHVPYTFGGGTKVEIKGTGGGSGPSVFLFPPKPKDTLMISRTPEVTCVVVDVSHEDPEVKFNWYVDGVEVHNAKTKPREEQYNSTYRVVSVLTVLHQDWLNGKEYKCKVSNKGLPSSIEKTISKAKGQPREPSVFPLAPSSKSTSGGTAALGCLVKDYFPSDIAVEWESGALTSGVHTFPAVLQSSGLYSLSSVVTVPSSSLGTQTYSCSVMHEALHNHYTQKSVEPKSC
notes: CH2 carries A327G, A330S and P331S (EU numbering)
By Kd is commonly meant the constant that tells how readily two partners part at equilibrium. Read a low Kd as higher affinity. As usually defined, the koff is the first-order rate constant of dissociation. A word on the kon: it is the rate constant with which the complex forms. The low end stands for slow association, the high end for fast association. Molecule B2 returned a concentration giving a half-maximal response (EC50) in test [5] of 1.9 nM. In addition, the half-maximal effective concentration (EC50) in test [6] was 0.37 nM. Besides, in test [7], the “factor of increased inhibitory potential (IL-8 inhibition) compared to ATROSAB” value was found to be 2.8 fold and the “fold reduced bioactivity (IL-8 inhibition) compared to Fab13.7” value was 3.7 fold. In test [8], the “IL-8 Inhibition IC50” value came out at 48 nM. Moreover, the Kd in test [9] was determined as 2.66 nM. In test [10], this molecule yielded a koff of 0.000983 s⁻¹ and an on-rate constant (kon) of 369000 M⁻¹ s⁻¹. The “fold reduced binding affinity compared with Fab13.7” value in test [11] was determined as 2.1 fold. Further, in [12], the “IC50, Cell death induction [nM] (Kym-1 cells, 0.01 nM TNF)” value came to 16.2 nM; the “IC50, IL-6 [nM] (HeLa cells, 0.1 nM TNF)” value stood at 54.5 nM; the “IC50, IL-8 [nM] (HT1080 cells, 0.1 nM TNF)” value amounted to 24.2 nM.

For the origin of these results see patent publication US20200172619A1 (UNIVERSIT T STUTTGART, published 2020).
